The source of these data is paper PMC4041461, “Identification and characterization of RNA guanine-quadruplex binding proteins”.

For orientation: Kd means the free concentration of one partner at which half of the binding sites on the other are occupied at equilibrium, for simple one-to-one binding.

Data set [1] addresses U2AF65 (Homo sapiens, UniProt P26368 1-475). The data set is described as follows: SPR; SPR: 25 °C, 1:10 mixture of binding buffer (10 mM Tris-HCl pH 7.5, 150 mM KCl) and HBS-EP (10 mM HEPES pH 7.4, 150 mM NaCl, 3 mM EDTA, 0.005% P20), protein immobilized; pull-down: RNA on streptavidin beads blocked in 10 mM Tris-HCl pH 7.5, 100 mM KCl, 0.1 mM EDTA, 1 mM DTT, 0.01% Triton X-100, BSA, tRNA; extract 1 h at 30 °C, elution 400-2600 mM KCl. Conditions: protein: recombinant, tags: N-terminal His-tag (pET28a), label: biotin.

In data set [2] the target is Δnucleolin (Homo sapiens, UniProt P19338 284-710, del1-283). Described as above. To be noted: protein: recombinant, tags: N-terminal His-tag (pET28a), label: biotin.
The target of data set [3] is T1, EFHD2 (Homo sapiens, UniProt Q96C19 1-240).
T1 sequence: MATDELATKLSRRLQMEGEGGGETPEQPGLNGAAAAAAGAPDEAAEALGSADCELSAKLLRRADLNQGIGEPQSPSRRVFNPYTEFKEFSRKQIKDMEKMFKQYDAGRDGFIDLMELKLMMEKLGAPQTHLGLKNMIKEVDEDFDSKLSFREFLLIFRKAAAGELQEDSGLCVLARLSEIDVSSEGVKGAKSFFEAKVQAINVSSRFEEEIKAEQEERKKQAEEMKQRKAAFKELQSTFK
The data set is described as follows: SPR; 100 nM RNA; SPR: 25 °C, 1:10 mixture of binding buffer (10 mM Tris-HCl pH 7.5, 150 mM KCl) and HBS-EP (10 mM HEPES pH 7.4, 150 mM NaCl, 3 mM EDTA, 0.005% P20), protein immobilized; pull-down: RNA on streptavidin beads blocked in 10 mM Tris-HCl pH 7.5, 100 mM KCl, 0.1 mM EDTA, 1 mM DTT, 0.01% Triton X-100, BSA, tRNA; extract 1 h at 30 °C, elution 400-2600 mM KCl. To be noted: protein: recombinant; tags: N-terminal His-tag (pET28a); label: biotin; parallel G4, several variants possible.

In data set [4] the target is SRSF1 (Homo sapiens, UniProt Q07955 1-248). The data set is described as above. Conditions: protein: recombinant; tags: N-terminal His-tag (pET28a); label: biotin; parallel G4, several variants possible.
The mark [5] stands for this setting: parallel G4, several variants possible.

Δnucleolin, sequence (P19338 284-710, stated change not applied): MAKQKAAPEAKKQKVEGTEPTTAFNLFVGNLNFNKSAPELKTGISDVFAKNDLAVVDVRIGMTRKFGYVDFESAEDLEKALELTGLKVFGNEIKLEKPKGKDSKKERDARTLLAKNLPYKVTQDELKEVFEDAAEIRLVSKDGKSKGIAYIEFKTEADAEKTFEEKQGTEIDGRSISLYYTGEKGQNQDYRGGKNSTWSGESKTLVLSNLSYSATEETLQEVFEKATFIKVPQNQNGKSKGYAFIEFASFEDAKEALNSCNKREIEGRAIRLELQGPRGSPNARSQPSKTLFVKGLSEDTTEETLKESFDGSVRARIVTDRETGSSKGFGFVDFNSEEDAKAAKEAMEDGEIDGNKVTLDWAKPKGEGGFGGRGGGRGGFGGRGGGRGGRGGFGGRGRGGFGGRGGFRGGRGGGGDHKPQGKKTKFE
U2AF65, sequence (P26368 whole entry, one chain of several): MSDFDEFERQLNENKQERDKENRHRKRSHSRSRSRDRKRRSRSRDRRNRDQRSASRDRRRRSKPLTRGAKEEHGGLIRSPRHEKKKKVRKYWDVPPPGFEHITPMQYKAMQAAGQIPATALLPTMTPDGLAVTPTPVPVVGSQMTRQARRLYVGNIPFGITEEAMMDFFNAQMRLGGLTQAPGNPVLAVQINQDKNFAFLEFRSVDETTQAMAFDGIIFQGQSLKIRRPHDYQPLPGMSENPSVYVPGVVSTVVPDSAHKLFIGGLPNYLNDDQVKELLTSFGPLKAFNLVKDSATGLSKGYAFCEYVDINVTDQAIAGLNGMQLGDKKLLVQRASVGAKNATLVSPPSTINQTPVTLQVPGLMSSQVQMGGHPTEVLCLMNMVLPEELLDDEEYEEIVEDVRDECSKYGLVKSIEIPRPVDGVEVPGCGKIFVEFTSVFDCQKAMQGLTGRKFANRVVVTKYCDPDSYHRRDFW
SRSF1, sequence (Q07955 whole entry): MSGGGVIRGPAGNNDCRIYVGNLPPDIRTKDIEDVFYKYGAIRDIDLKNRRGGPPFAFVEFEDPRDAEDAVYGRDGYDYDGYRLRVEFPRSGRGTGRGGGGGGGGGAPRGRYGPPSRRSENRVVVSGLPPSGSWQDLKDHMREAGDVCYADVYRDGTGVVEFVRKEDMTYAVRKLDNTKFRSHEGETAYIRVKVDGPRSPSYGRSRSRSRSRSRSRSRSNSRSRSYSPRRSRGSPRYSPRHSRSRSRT

With AACGAGGGAGGGAGGGAGAGGGAGAGA (structured_RNA, 3' biotin) [MMP16 GQ], the Kd worked out at 5 nM in data set [1] (parallel G4 (CD, UV melting)) and 2 nM in data set [2] (parallel G4 (CD, UV melting)).
Take AGCCGUAGACUGAGCGAAGACCGAGCUUGU (ssRNA, 3' biotin) [ARPC2 mut]: in data set [2] (no G4), the Kd came out at 83 nM.
Regarding AGCCGGGGGCUGGGCGGGGACCGGGCUUGU (structured_RNA, 3' biotin) [ARPC2 GQ], the Kd in data set [1] (setting [5]) amounted to 1 nM; in data set [2] (setting [5]), 0.6 nM. In addition, the binding result in data set [3] and in data set [4] was “binds” throughout.
For AACGAGAGAGAGAGAGAGAGAGAGAGA (ssRNA, 3' biotin) [MMP16 mut], in data set [2] (no G4), the Kd came out at 0.6 nM.
